The nanobody polyreactivity screen of Harvey et al. (2022)

Experiment: yeast display, Sf9 membrane polyspecificity reagent, FACS + sequencing; frameworks hold sequencing errors
Outline: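 A synthetic nanobody library was expressed on Saccharomyces cerevisiae BJ5465 by galactose induction for 36–48 hours. The library was stained for 1 hour at 4 °C with 10% biotinylated, detergent-solubilized Sf9 membrane reagent and enriched with streptavidin microbeads before FACS. Low and high (top ~1%) gates were set on anti-HA fluorescence for expression and streptavidin fluorescence for reagent binding, and each polyreactivity label reflects the gate of origin.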

Sequence | polyreactivity (PSR sort gate)
QVQLVETGGGLVQAGGSLRLSCAASGFTSLTYAMGWYRQAPGKERELVAAITFSGGSTYYADSVKGRFTISRDNAKNTVYLQMNSLKPEDTAVYYCARDGLWYNAIWEYDYWGLGTQVTVSS | high polyreactivity
QVQLVESGGGLVQAGGSLRLSCAASGRIVARYAMGWYRQAPGKERELVAAISPVGSTYYADSVKGRFTISRDNAKNTVYLQMTSLNPEDTGVYYCNAYNTRRSAPYVWRTYDYWGQGTQVTVSS | high polyreactivity
QVQLVESGGGIVQAGRSLRLSCAASGNTFYLYAMGWYRQAPGKERELVATITSGGRTTYADSVKGRFTISRDNAKNTVYLQMNSLKPEDTAVYYCAARRVQYYGWGGMEYWGQGTQVTVSS | high polyreactivity
QVQLVESGGGLVQAGGSLRLSCAASGSTFDGNAMGWYRQAPGKERELVAGISYRGGSTYYADSVKGRFTISRDNAKNTVYLQMNSLKPEDTAVYYCAADDYGYWLFDYWGQGTQVTVSS | low polyreactivity
QVQPQESGGGLVQAGGSLRLSCAASGTIFAFQTMGWYRQAPGKERELVASITYGSSTNYADSVKGRFTFSRDNANITVYVQMNSLKPEDTAVYYCAVPQAQYYYYYWGQGTQVTVSS | high polyreactivity
QVQLVESGGGLVQAGGSLRLSCAASGRTSLGYDMGWYRPAPGQEGELVAAITRSGGSTYYADSVKGRFTISRDNAKNTVYLQMNSLKPEDTAVYYCNRVLPHPDGYGVGARGYWGKGTQVTVSS | high polyreactivity
QVQLVESGGGLVQAGGSLRLSCAASGSIFYWNAMGWYRQAPGKERELVAAISYNGGSTYYADSVKGRFTISRDNAKNTVYLQMNSLKPEDTAVYYCAADNYYYGYEYWGQGTQVTVSS | high polyreactivity
QVQLVESGGGLVQAGGSLRLSCAASGFIFDFYAMGWYRQAPGKERELVATINSSGTTNYADSVKGRFTISRDNAKNTVYLEMISLKPEDTAVYDCATVEYLGHYTYDYWGQGTQVTVSS | low polyreactivity
QVQLVDSGGGLVQAGGSLRLSCAASGGTLRYYAMGWYRQAPGTEREFVASISRSGGSTYYADSVKGRFTISRDTAKYTVYLQMNSLKPVDTAVYYCADVKSSGSPRARYGYWGQGTQVTLSS | high polyreactivity
QVQLVESGGGLVQAGGSLRLSCAASGSIFSYYAMGWYRQAPGKERELVADITVRGGSTYYADSVKGRFTISRDNAKNTVYLQMNSLIPEDTAVYYCAADWLDESFSYGPYYYWGQGTQVTVSS | low polyreactivity
KVQLVESGGGLVQAGGSLRISCAASGGIFAYNAMGWYRQAPGKEMELVASITSGGNTYYADSVKGRFTISRDNAKNTFYLQMNSLKPEDTAVYYCNARFYRSWRRYSREPGYNYWGQGTQVTVSS | high polyreactivity
QVQLVESGGGLVQAGGSLRLICAASGRTFGTHTMGWYRQAPGKERELVAAISSRGGTTYYADSVKGRFTISRDNAKNTVYLQMNSLKPEDTAVYYSNTGTRAIQRDGFEYWGQGTQVTVSS | low polyreactivity
QVQLVESGGGLVQAGGSLRLSCAASGFILTDNAKGWNRQAPGKERELVAAINSGGSTYYADSVKGRFTISRDNAKNTVYLQMNSLKPEDTEVYYCAADYSTWLRAYDYWGQGTQVTVSS | low polyreactivity
QVLLVVSGGGLVQAGGSLRLSCAASGFTFDTYAMGWNRQAPGKERELVAVITRGGSTNYADSVNGRFTISRDNAKNTVYLQMNSLKPEDTALYFCAAEHRNTYTFARDYYWGQGTQVTVSS | high polyreactivity
QVQLVESGGGLVQAGGSLRLSCAASGFTFTPNAMGWYRQAPGKERELVAVITWNGGTTYYADSVKGRFTISRDNAKNTVYLQMNSLKPEDTAVYYCNADGLILYDYWGQGTQVTVSS | low polyreactivity
QVQLVESGGGLVQAGGSLRLSCAASGSIFPPYVMGWYRPAPGKERELVAAINYIGDSTYADSVKGRFTISRDNAKNTVYLQINSLKPEDTAVYYCAAELWSGGVYSGFEEYWGQGTQVTVSS | high polyreactivity
QVQLVESGGGLVQAGGSLRLSCAASGSTFYKYGMGWYRQAPGKERELVAAISGSGDSTYYADSVKGRFTISRDNAKNTVYLQMNSLKPEDTAVYYCNAGPWWYLHEYDYWGQGTQVTVSS | low polyreactivity
QVQLVESGGGLVQAGGSLRLSCAASGRTFRRYTMGWYRQAPGKVRELVAAITTSGGSTYYADSVKGRFTISRDNAKNTVYLQMNRLKPEDTAVYYCAATRRYSGDYWGQGTQVTVSS | high polyreactivity
QVQLVESGGGLVQAGGSLRLSCAASGSISYPNAMGWYRQAPGKERELVAAINSGDRTNYADSVKGRFTISRDNAKNTVYLQMNSLKPEDTAVYYCARRRYLLWGGYGYWGQGTQVTVSS | low polyreactivity
QVQLVESGGGLVQAGGSLRLSCAASGFTFRYYTMGWYRQAPGKERELVAAITASGSSTYYADSVKGRFTISRDNAKNTVYLQMNSLKPEDTAVYYSKALHFYGVGRYDHWGQGNQVTVSS | high polyreactivity
QVQLEESGGGLVQAGGSLRLSCAASGITFNQYVMGWYRQAPGKEMELVAAISRSGATTYYADSVKGRFTISRDNAKNTVYLQMNSLKPEDTAVYYCAVRGSVSYTRYGYWGQGTQVTVSS | high polyreactivity

Sequence | polyreactivity (PSR sort gate)
QVQLVESGGGLVQAGGSLRFSCAASGIIFYYKTMGLYRQAPGKERELVASITWSGDTTYYAYSVKGRYTISRDNAKNSVYLQMNSLKPEDTAVYYCAAACYWYPSYSSYLGMYYWGQGTKVTVSS | low polyreactivity
QVQLVESGGGLVQARGSLRLSCAAYRITFGWYAMGWYRQAHAKERELVASISSSGSTNYADSVKGRFTISRDNAKNTVYLQMNSLKPEDTAVYYCNKDYRRRHYYIYVIEGDYWGQGTQVTVSS | low polyreactivity
QVQLVESGGGLVQAGGSLRLTCAASGFIFVRNAMGWYRQAPGKERDLVAAISSRGGRTYYADSVKGRFTISRDNAKYTVYLQMNRLKPEDTAVYYCNADRDTQGDGYDYWGQGTQVTVSS | high polyreactivity
QVQLVESGGGLVQAGVSLRLSCASTGLTFRYYAMGWYRQAPGKERELVAAISSGTGTYYADSVKGRFTISRDNAKNTVYLQMNSLKPEDTAVYYCAAVFFRARVIRGYNYWGQGTQVTVSS | high polyreactivity
QVQLQDSGGGLVQAGGSLRLSCAASGTIVTARFMGWYRQAPGKERELVATITDGGNTNHADSVKGRFTISRDNAKNTVYLQMNSLKPEDAAVYYCAAGEVDNDTLLYWGQGSQVTVSS | low polyreactivity
QGQLVESGGGLVQAGGSLRLSCAASGRISYYYAMGWYRQAPGKERELVAAISRRSTSTYYADSVKGRFTISRDYAKNTVYLQMNSLKPEDTAVYYCAARYIRAFSWRMDYWGQGTQVTVSS | high polyreactivity
QVQLVESGGGLVQAGGSLRLSCAASGRIFSYYAMGWYRHAPWKERELVAAISRSGAKTYYADSVKGRFTISRDNAKNSVYLQMNSLKPEDTAVYYCNADTLRRRYNYWGQGTQVTVSS | high polyreactivity
QDQLVESGGGLVQAGGSLRLSCAASGFTYEKYAMGSYRTAPGKERELVASISWSGGRTRYADSVMGRFTISRDNAKNTVYLQMNSLKPEDTAVYYCAARGAYKSAYNRNEYWGQGTQVTVSS | high polyreactivity
QVQLVESGGGLVQAGGSLRLSCAASGFTFVGYAMGWYRQAPGKESELVAAITSSGGSTYYADSVKGRFTISRDNAKNTVYLQMNSLKPEDTAVYYCAAPAPVLSTQKRFDSWGQGTQVTVSS | low polyreactivity
QVQLVESGGGLVQAGGSLRLSCAASGSTFYVYAMGWYRQAPGTERELVAAIDYSDGSTYYADSVKGRFTISRDNAKNTVYLQMNSRKPEDTAVYYCAADTVSWFEYYYWGQGTQVTVSS | high polyreactivity
QVQLVESGGGLVQAGGSLRLSCAASGRTFRFYAMGWYRQAPGKERELVAGITGGGSTNYADSVKGRFTISRDNAKNTVYLQMNSLKPEDTAVYSCNATIRYYRRGKLYDYWGQGTQVTVSS | high polyreactivity
QVQLVESGGGLVQAGGSLRLSCAASGITFVKNAMGWYRQAPGKERELVARIRIGGSTSYADSVKGRFTISRDNAKNTVYLQRNSLKPEDNAVYYCARYAGRLSYRYEYWGQGTQVTVSS | high polyreactivity
QVQLVESGGGLVQAGGSLRLSCAASGLTFSLYAMGWYRQAHGKERELVAAISWTGGSTYYADSVKGRFTISRDNAKNTVYLQMNSLKPEDTAVYYCNARYTLFARYGYDYWGQGTQVTVSS | low polyreactivity
QFHLLESGGRLDQAGGSLRLSCAASGIIFRGNAMGWYIQAPGKERELVAAISSGGSTYYADTVKGSFTISRDNAKNTVYLKMNCLKPEDTAVYYCNARWYFWGTLYGSWGQGTQVTVSS | high polyreactivity
QVQLVESGGGLVQAGGSLRLSCAASGNIIDANAMGWYRQAPGKERELVAAITSSGGSTYYADSVKGRFTISRDNANNTVYLQMNSLKPEDTAVYYCAKSHAIYYWWDESWGHGTQVTVSS | low polyreactivity
QVQLVESGGGLVQAGGSLRLSCAASGSIFGINTMRWYRQAPGKEREFVASIRFNDGDTYYADSVKGRFTISRDNAKNTVYFQMNSLKPEDTAVYYFNVQTYVELRLDYWGQGTHVTVSS | low polyreactivity
QVQLVESGGGLVQAGGSLRLSCAASGRIFWYYAVGWYRQAPGKERELVARISSSGGSTYYADSVKGRFTISRDNANNTVYLQMNSLKPEDTAVYYCAKERYSGSSRYPMDYWGQGTQVTVSS | high polyreactivity
QDQHVESGGGLVQEGGSLRLSCAASGSTFWPYAMGWSRQAPGKERELVARINSGGNTNYADSVKGLFTISRDNAKNTVYLQMNSLKPEDTAVYYCAVRSLYEPRVYYRCVVGDGNYWGQGTQVTVSS | low polyreactivity
QVQLVESGGGLVQAGGSLRLSCAASGSTFSPYARGWYRQAPGKERELVANITISGGSTYYADSVKGRFTISRENAKNTVYFQMNSLKPEDTGVYYSNADSLIRWLFTVVIFDYWGQGTQVTVSS | low polyreactivity
QVQLVEAGGGLVQAGGSLRLSCAASGRTFRYYAMRWYRQATGKERELVAAITTGSSTYYADSVKGRFTISRDNAKNTVYLQMNSLKPEDTAVYYCAADHLYWGLEYESWGQGTQVTVSS | low polyreactivity
